The values that follow come from US20090232801A1 (ABBOT LABORATORIES, published 2009).

In assay [1] the target is T1, Aβ(1-42) globulomer (human).
T1 construct: the definition mentions n=12-14 for late assembly forms; also called human A-beta oligomer antigen (1-42); Aβ(1-42) globular oligomer
The assay can be described thus: dot blot densitometry; reference: Aβ(1-40) monomer. The method, then:
(§1) The dot blot was developed with a development solution made from 1 tablet of NBT/BCIP (Roche) dissolved in 20 mL H₂O for 5 min. The development was stopped by intense washing of the dot blot with H₂O. Quantitative evaluation was done using a densitometric analysis (GS800 densitometer (BioRad) and software package Quantity one, Version 4.5.0 (BioRad)) of the dot-intensity. Only the dots for 10 pmol Aβ antigen were evaluated. Results for the Discrimination of Aβ Monomer Against Aβ Globulomer by Dot Blot Method: Comparison of 8F5hum8 Versus 4G8.
(§2) The humanized monoclonal antibody 8F5hum8 (0.2 μg/ml) were used for detection with an anti-human IgG coupled to alkaline phosphatase as secondary antibody and the staining reagent NBT/BCIP (Roche Diagnostics, Mannheim). The detection signal was analyzed in its intensity (reflective density=RD) via a densitometer (GS 800, Biorad, Hercules, Calif., USA) at an antigen concentration of 10 pmol. At this concentration for every Aβ-form, the measured reflective density was in the linear range of the densitometer detection.
(§3) Discrimination of anti-Aβ-antibodies of Aβ1-40 monomer and Aβ1-42 monomer. The discrimination was calculated as the ratio of detection signal of Aβ1-42 globulomer and Aβ1-42 monomer, respectively Aβ1-40 monomer.

For assay [2], the target named is T1, Aβ(1-42) globulomer. The assay can be described thus: dot blot densitometry; reference: Aβ(1-42) monomer. The method, then: as §1, §2, §3
Assay [3] has as its target T2, Aβ(1-42) monomer, HFIP pretreated (human).
T2 construct: Human Aβ(1-42), Bachem H-1368, monomer preparation in Pluronic F68 buffer; also called Aβ42 monomer
The assay can be described thus: dot blot, 10 pmol antigen on nitrocellulose, 0.2 µg/ml antibody, densitometry. As to the method: as §1, §2

The target in the next assay is T3, Aβ(1-40) monomer (human).
T3 construct: Human Aβ(1-40), Bachem H-1194, HFIP treated and dissolved in DMSO; also called Aβ40
T3 sequence (peptide, as listed by the source): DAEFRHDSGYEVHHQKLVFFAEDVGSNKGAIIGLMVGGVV
The assay is described as above. As to the method:
as §1, §2

In assay [4] the target is T1, Aβ(1-42) globulomer. The assay is described as above. The method, then: as §1, §2
The target in assay [5] is T1, Aβ(1-42) globulomer. The assay can be described thus: competition ELISA, Expt. 2: unlabelled antibody against biotinylated Mu8F5 on coated human A-beta oligomer antigen (1-42). The method, then: (§4) MaxiSorp ELISA plates (Nalge Nunc International) were coated overnight at 4° C. with 100 μl/well of 5.0 μg/ml human A-beta oligomer antigen (1-42) (Abbott Biosciences Corporation, Worcester, Mass.) in PBS, washed with Wash Buffer (PBS containing 0.1% Tween 20), and blocked for 1 hr at room temperature with 340 μl/well of SuperBlock Blocking Buffer in PBS (Pierce Chemical Company). After washing with Wash Buffer, a mixture of biotinylated Mu8F5 (1.0 μg/ml final concentration) and competitor antibody (Mu8F5 or Hu8F5 starting at 27 μg/ml final concentration and serially diluted 3-fold) in 100 μl/well of 5% Superblock Blocking Buffer in PBS was added in triplicate. As a no-competitor control, 100 μl/well of 5% Superblock Blocking Buffer in PBS was used. After incubating the plates for 2 hrs at room temperature, and washing with Wash Buffer, bound antibodies were detected using 100 μl/well of 1 μg/ml HRP-conjugated streptavidin (Pierce Chemical Company) in 5% Superblock Blocking Buffer in PBS. After incubating for 30 min at room temperature, and washing with Wash Buffer, color development was performed by adding 100 μl/well of ABTS Peroxidase Substrate/Peroxidase Solution B (KPL). […] Absorbance was read at 415 nm.
(§5) The affinity of Hu8F5 to human A-beta oligomer antigen (1-42) was analyzed by competition ELISA as described in Materials and Methods. […]
On the technique in general: ELISA stands for enzyme-linked immunosorbent assay.

For assay [6], the target named is T1, Aβ(1-42) globulomer. The assay can be described thus: competition ELISA, Expt. 3: unlabelled antibody against biotinylated Mu8F5 on coated human A-beta oligomer antigen (1-42). As to the method:
as §4, §5

Assay [7] concerns the target T1, Aβ(1-42) globulomer. The assay can be described thus: competition ELISA, Expt. 1: unlabelled antibody against biotinylated Mu8F5 (1.0 µg/ml) on coated human A-beta oligomer antigen (1-42). The method, then:
as §4, §5

The target of assay [8] is T1, Aβ(1-42) globulomer. Kind of assay: competition ELISA, average of 3 experiments: unlabelled antibody against biotinylated Mu8F5 on coated human A-beta oligomer antigen (1-42). As to the method: as §4, §5
The target of assay [9] is T1, Aβ(1-42) globulomer. Kind of assay: competition ELISA, Expt. 1: competitor against biotinylated Mu8F5 on coated human A-beta oligomer antigen (1-42). The method, then:
as §4, §5

Assay [10] has as its target T1, Aβ(1-42) globulomer. Kind of assay: competition ELISA, Expt. 2: competitor against biotinylated Mu8F5 on coated human A-beta oligomer antigen (1-42). As to the method: as §4, §5
In assay [11] the target is T1, Aβ(1-42) globulomer. The assay can be described thus: competition ELISA, Expt. 3: competitor against biotinylated Mu8F5 on coated human A-beta oligomer antigen (1-42). The method, then: as §4, §5
Assay [12] has as its target T1, Aβ(1-42) globulomer. The assay can be described thus: competition ELISA, average of 3 experiments: competitor against biotinylated Mu8F5 on coated human A-beta oligomer antigen (1-42). As to the method: as §4, §5

T1 sequence (peptide, as listed by the source): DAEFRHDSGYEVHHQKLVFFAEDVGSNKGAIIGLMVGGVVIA

B1: humanized monoclonal antibody 8F5hum8 (antibody, V domains shown)
VH: EVQLVESGGGLVQPGGSLRLSCAASGFTFSSYGMSWVRQAPGKGLELVASINSNGGSTYYPDSVKGRFTISRDNAKNTLYLQMNSLRAEDTAVYYCASGDYWGQGTLVTVSS
VL: DIVMTQSPLSLPVTPGEPASISCRSSQSLVYSNGDTYLHWYLQKPGQSPKLLIYKVSNRFSGVPDRFSGSGSGTDFTLKISRVEAEDVGVYYCSQSTHVPWTFGGGTKVEIKR
notes: It was detected with anti-human IgG; also called humanized antibody 8F5; mMAb 8F5hum8
On to B1, for which, in the assay with Aβ(1-42) globulomer [1], the “Ratio RD Aβ(1-42) globulomer/RD Aβ(1-40) monomer” value worked out at 59. The “Ratio RD Aβ(1-42) globulomer/RD Aβ(1-42) monomer” value with Aβ(1-42) globulomer [2] stood at 1.6. The “Reflective Density (RD) [10 pmol]” value in assay [3] worked out at 1.3 RD; with Aβ(1-40) monomer, 0.04 RD; with Aβ(1-42) globulomer [4], 2.2 RD.

B2: murine monoclonal antibody 8F5 (antibody, V domains shown)
VH: EVQLVESGGGLVQPGGSLKLSCAASGFTFSSYGMSWVRQTPDKRLELVASINSNGGSTYYPDSVKGRFTISRDNAKNTLYLQMSSLKSEDTAMYYCASGDYWGQGSTLTVSS
VL: DVVMTQTPLSLPVSLGDQASISCRSSQSLVYSNGDTYLHWYLQKPGQSPKLLIYKVSNRFSGVPDRFSGSGSGTDFTLKISRVEAEDLGVYFCSQSTHVPWTFGGGTKLEIK
notes: Mouse monoclonal antibody; also called Mu8F5; mouse 8F5 antibody
Consider B2, for which the IC50 is 4.87 µg/mL with Aβ(1-42) globulomer [5], 5.81 µg/mL with Aβ(1-42) globulomer [6], 4.58 µg/mL with Aβ(1-42) globulomer [7] and 5.08 µg/mL with Aβ(1-42) globulomer [8].

B3: Hu8F5v1 (humanized 8F5, heavy chain version 1) (antibody, V domains shown)
VH: EVQLVESGGGLVQPGGSLRLSCAASGFTFSSYGMSWVRQAPGKGLEWVASINSNGGSTYYPDSVKGRFTISRDNAKNTLYLQMNSLRAEDTAVYYCASGDYWGQGTLVTVSS
VL: DIVMTQSPLSLPVTPGEPASISCRSSQSLVYSNGDTYLHWYLQKPGQSPKLLIYKVSNRFSGVPDRFSGSGSGTDFTLKISRVEAEDVGVYYCSQSTHVPWTFGGGTKVEIK
notes: Human IgG1/kappa, expressed in 293T/17 cells from modified pVg1.D.Tt (gamma-1 changed to z, non-a allotype: D356E, L358M, EU index) and pVk; also called Hu8F5VHv1 + Hu8F5VL
On to B3, for which the IC50 in the assay with Aβ(1-42) globulomer [9] is 6.28 µg/mL; with Aβ(1-42) globulomer [10], 6.85 µg/mL; with Aβ(1-42) globulomer [11] it was 5.93 µg/mL; with Aβ(1-42) globulomer [12] it was 6.36 µg/mL.

B4: Hu8F5v2 (humanized 8F5, heavy chain version 2) (antibody, human IgG1, V domains shown)
VH: EVQLVESGGGLVQPGGSLRLSCAASGFTFSSYGMSWVRQAPGKGLELVASINSNGGSTYYPDSVKGRFTISRDNAKNTLYLQMNSLRAEDTAVYYCASGDYWGQGTLVTVSS
VL: DIVMTQSPLSLPVTPGEPASISCRSSQSLVYSNGDTYLHWYLQKPGQSPKLLIYKVSNRFSGVPDRFSGSGSGTDFTLKISRVEAEDVGVYYCSQSTHVPWTFGGGTKVEIK
notes: Human IgG1/kappa, as for Hu8F5v1; The heavy chain differs from version 1 by the additional mouse residue at position 47 (W47L mutation of the Hu8F5VH gene); also called Hu8F5VHv2 + Hu8F5VL
For B4, the IC50 in the assay with Aβ(1-42) globulomer [9] was 6.29 µg/mL; with Aβ(1-42) globulomer [10], 8.12 µg/mL; in the assay with Aβ(1-42) globulomer [11], 6.56 µg/mL; with Aβ(1-42) globulomer [12] it was 6.99 µg/mL.

A word on the IC50: it is the point on the concentration scale where inhibition reaches its midpoint.
